The values below come from IntAct's records for PubMed 33758649.

B1: Protein PALS1 (Homo sapiens), Q8N3R9 (parent)
chain: MTTSHMNGHVTEESDSEVKNVDLASPEEHQKHREMAVDCPGDLGTRMMPIRRSAQLERIRQQQEDMRRRREEEGKKQELDLNSSMRLKKLAQIPPKTGIDNPMFDTEEGIVLESPHYAVKILEIEDLFSSLKHIQHTLVDSQSQEDISLLLQLVQNKDFQNAFKIHNAITVHMNKASPPFPLISNAQDLAQEVQTVLKPVHHKEGQELTALLNTPHIQALLLAHDKVAEQEMQLEPITDERVYESIGQYGGETVKIVRIEKARDIPLGATVRNEMDSVIISRIVKGGAAEKSGLLHEGDEVLEINGIEIRGKDVNEVFDLLSDMHGTLTFVLIPSQQIKPPPAKETVIHVKAHFDYDPSDDPYVPCRELGLSFQKGDILHVISQEDPNWWQAYREGDEDNQPLAGLVPGKSFQQQREAMKQTIEEDKEPEKSGKLWCAKKNKKKRKKVLYNANKNDDYDNEEILTYEEMSLYHQPANRKRPIILIGPQNCGQNELRQRLMNKEKDRFASAVPHTTRSRRDQEVAGRDYHFVSRQAFEADIAAGKFIEHGEFEKNLYGTSIDSVRQVINSGKICLLSLRTQSLKTLRNSDLKPYIIFIAPPSQERLRALLAKEGKNPKPEELREIIEKTREMEQNNGHYFDTAIVNSDLDKAYQELLRLINKLDTEPQWVPSTWLR
partner: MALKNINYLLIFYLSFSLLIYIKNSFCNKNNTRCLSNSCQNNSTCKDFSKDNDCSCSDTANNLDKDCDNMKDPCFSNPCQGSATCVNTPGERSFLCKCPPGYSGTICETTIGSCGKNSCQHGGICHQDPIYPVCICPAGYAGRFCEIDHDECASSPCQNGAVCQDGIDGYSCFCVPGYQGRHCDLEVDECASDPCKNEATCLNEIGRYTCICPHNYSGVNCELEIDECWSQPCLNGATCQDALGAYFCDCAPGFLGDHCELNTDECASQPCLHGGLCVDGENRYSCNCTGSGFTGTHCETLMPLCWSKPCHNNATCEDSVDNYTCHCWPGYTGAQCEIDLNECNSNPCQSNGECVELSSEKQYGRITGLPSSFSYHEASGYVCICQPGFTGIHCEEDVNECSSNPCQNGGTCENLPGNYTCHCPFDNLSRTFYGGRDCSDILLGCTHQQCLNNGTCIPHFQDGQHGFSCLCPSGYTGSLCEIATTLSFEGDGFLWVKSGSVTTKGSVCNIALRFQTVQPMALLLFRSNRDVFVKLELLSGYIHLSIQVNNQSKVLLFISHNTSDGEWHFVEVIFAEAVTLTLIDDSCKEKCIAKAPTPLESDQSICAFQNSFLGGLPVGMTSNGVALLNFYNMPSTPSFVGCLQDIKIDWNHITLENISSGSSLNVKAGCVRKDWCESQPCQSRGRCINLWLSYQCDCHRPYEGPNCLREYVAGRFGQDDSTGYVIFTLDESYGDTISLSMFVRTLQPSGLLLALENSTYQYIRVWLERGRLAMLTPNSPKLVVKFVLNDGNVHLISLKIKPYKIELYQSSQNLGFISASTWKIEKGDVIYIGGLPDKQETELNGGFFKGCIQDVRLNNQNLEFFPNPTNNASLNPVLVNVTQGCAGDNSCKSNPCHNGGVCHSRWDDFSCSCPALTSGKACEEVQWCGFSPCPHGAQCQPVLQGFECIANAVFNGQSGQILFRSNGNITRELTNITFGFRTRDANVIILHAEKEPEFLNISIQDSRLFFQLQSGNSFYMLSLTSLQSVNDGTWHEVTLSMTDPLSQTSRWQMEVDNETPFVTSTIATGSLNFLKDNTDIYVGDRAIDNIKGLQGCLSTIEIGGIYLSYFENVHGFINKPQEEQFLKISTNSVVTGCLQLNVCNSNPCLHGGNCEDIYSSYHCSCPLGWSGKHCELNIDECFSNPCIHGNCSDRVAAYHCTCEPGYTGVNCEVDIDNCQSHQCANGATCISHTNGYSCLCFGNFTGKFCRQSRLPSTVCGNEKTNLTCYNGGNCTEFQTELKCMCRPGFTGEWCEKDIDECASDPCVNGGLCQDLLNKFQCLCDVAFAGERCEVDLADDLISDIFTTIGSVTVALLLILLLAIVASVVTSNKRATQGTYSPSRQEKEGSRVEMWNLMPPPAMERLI

This test covers variants of B1. The note with it: with crum1_human CRB1, P82279.
On to F318W, for which the “effect of a mutation on the interaction” value was “decreasing interaction strength”.
